Source: patent EP4711384A1 (WIO Bioscience Co., Ltd., dated 2026)
Numbering of substitutions follows the chain as printed. Values belong to the binder of their own block, whether it stands above or below them.

Target: T1, human IL-18R1 and IL-18RAP on IL-18 Reporter HEK 293 Cells (human, UniProt Q13478 19-541; O95256 20-599)
T1 sequence (looked up) 1: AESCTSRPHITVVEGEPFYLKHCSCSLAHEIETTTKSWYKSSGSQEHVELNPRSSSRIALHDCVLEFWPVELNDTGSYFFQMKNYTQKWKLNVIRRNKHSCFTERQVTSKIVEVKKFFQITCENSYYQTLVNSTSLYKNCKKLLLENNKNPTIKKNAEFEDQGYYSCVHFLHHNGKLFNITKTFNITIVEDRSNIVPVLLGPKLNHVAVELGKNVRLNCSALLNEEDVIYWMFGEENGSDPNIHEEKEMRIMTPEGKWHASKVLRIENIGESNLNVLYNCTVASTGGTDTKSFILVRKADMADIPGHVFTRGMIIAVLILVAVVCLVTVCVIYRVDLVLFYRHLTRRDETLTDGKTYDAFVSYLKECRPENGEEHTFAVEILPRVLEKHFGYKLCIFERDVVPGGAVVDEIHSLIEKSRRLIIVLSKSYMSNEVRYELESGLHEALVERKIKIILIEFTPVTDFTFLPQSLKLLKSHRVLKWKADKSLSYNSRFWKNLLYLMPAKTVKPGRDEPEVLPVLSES
T1 sequence (looked up) 2: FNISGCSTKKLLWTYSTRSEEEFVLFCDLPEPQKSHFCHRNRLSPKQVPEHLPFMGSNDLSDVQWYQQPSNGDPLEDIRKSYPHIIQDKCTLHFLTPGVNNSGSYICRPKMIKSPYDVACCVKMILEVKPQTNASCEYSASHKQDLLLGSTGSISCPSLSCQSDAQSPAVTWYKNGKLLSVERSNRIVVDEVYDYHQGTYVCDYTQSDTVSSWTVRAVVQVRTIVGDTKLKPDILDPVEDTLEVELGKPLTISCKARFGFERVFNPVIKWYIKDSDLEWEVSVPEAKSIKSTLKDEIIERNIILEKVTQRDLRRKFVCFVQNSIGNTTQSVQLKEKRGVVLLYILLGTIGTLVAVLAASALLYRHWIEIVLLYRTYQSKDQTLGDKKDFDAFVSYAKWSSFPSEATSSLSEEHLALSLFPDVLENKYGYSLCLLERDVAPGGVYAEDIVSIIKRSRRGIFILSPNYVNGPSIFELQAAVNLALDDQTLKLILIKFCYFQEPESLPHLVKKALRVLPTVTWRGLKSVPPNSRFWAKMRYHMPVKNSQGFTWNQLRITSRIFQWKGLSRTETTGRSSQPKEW
Experiment: cell-based or functional assay

B1: hzWio-02-01-Hm1 (bispecific antibody)
chain: EVQLVESGGGLVQPGGSLRLSCAASGHAYDNACMGWFRQAPGKEREGVASIHLRDRTYYADSVKGRFTISRDNSKNTLYLQMNSLRAEDTAVYYCASSNICNALNLQGNTYWGQGTLVTVSSGGGGSEVQLLESGGGLVQPGGSLRLSCAASGYTYGPYCMGWFRQAPGKEREGVAAVGGDARTWYGNSVKGRFTISRDNSKNTLYLQMNSLRAEDTAVYYCAADFDRTVCSDDIYDYTYRGQGTLVTVSSHHHHHH
EC50: 1.25 ng/mL
Top530nm: 0.909

B3: hzWio-02-01-Hm8 (bispecific antibody)
chain: B1 chain with H27T, G35H
EC50: 1.01 ng/mL
Top530nm: 1.51

B4: hzWio-02-01-Hm2 (bispecific antibody)
chain: B1 chain with H27T, A28H
EC50: 2.27 ng/mL
Top530nm: 1.1

B6: hzWio-02-01-Hm5 (bispecific antibody)
chain: B1 chain with H27T, N31H
EC50: 1.11 ng/mL
Top530nm: 1.01

B10: hzWio-02-01-Hm4 (bispecific antibody)
chain: B1 chain with H27T, D30H
EC50: 0.941 ng/mL
Top530nm: 1.08

B12: hzWio-02-01-Hm6 (bispecific antibody)
chain: B1 chain with H27T, A32H
EC50: 1.08 ng/mL
Top530nm: 0.894

B13: hzWio-02-01-Hm7 (bispecific antibody)
chain: B1 chain with H27T, M34H
EC50: 1.12 ng/mL
Top530nm: 1.03

B19: hzWio-02-01-Hm3 (bispecific antibody)
chain: B1 chain with H27T, Y29H
EC50: 1.14 ng/mL
Top530nm: 1.08

The next lines start with the values.

EC50: 1.47 ng/mL
Top530nm: 1
B2: hzWio-02-01-Hm17 (bispecific antibody)
chain: B1 chain with H27T, Y59H

EC50: 0.582 ng/mL
Top530nm: 2.75
B5: hzWio-02-01-Hm20 (bispecific antibody)
chain: B1 chain with H27T, S62H

EC50: 2.14 ng/mL
Top530nm: 0.9
B7: hzWio-02-01-Hm9 (bispecific antibody)
chain: B1 chain with H27T, S50H

EC50: 0.68 ng/mL
Top530nm: 1.17
B8: hzWio-02-01-Hm12 (bispecific antibody)
chain: B1 chain with H27T, R54H

EC50: 1.15 ng/mL
Top530nm: 1.11
B9: hzWio-02-01-Hm16 (bispecific antibody)
chain: B1 chain with H27T, Y58H

EC50: 1.26 ng/mL
Top530nm: 1.25
B11: hzWio-02-01-Hm14 (bispecific antibody)
chain: B1 chain with H27T, R56H

EC50: 0.696 ng/mL
Top530nm: 1.07
B14: hzWio-02-01-Hm18 (bispecific antibody)
chain: B1 chain with H27T, A60H

EC50: 1.42 ng/mL
Top530nm: 1.02
B15: hzWio-02-01-Hm11 (bispecific antibody)
chain: B1 chain with H27T, L53H

EC50: 1.54 ng/mL
Top530nm: 1.13
B16: hzWio-02-01-Hm15 (bispecific antibody)
chain: B1 chain with H27T, T57H

EC50: 1.27 ng/mL
Top530nm: 1.1
B17: hzWio-02-01-Hm10 (bispecific antibody)
chain: B1 chain with H27T, I51H

EC50: 1.12 ng/mL
Top530nm: 1.22
B18: hzWio-02-01-Hm13 (bispecific antibody)
chain: B1 chain with H27T, D55H

EC50: 0.84 ng/mL
Top530nm: 0.738
B20: hzWio-02-01-Hm19 (bispecific antibody)
chain: B1 chain with H27T, D61H
